How the values were obtained:
[1] = test system: Cc1cc(=O)oc2c(F)c(OP(=O)(O)O)c(F)cc12; assay: purified protein, by the assay type
[2] = test system: O=[N+]([O-])c1ccc(OP(=O)(O)O)cc1; assay: purified protein, by the assay type
[3] = other: DiFMUP, 0.5 nM enzyme, pH 7.5, 30 °C, mean of 3 ± SD
[4] = other: pNPP, 25 mM HEPES pH 7.5, 30 °C, mean of 3 ± SD

MoCdc14 (Pyricularia oryzae 70-15)
Km ([1]; pH 7.5, 30.0 °C): 44 ± 11 µM | Km ([2]; pH 7.5, 30.0 °C): 25 ± 1 mM

CgCdc14 (Colletotrichum gloeosporioides)
Km [1, 3]: 78 ± 12 µM | kcat [1, 3]: 7 s⁻¹ | kcat/Km [1, 3]: 86000 ± 6100 M⁻¹ s⁻¹ | Km [2, 4]: 30 ± 4 mM | kcat [2, 4]: 0.6 ± 0.1 s⁻¹ | kcat/Km [2, 4]: 20 ± 2 M⁻¹ s⁻¹

From article PMC7374715, “Conservation of Cdc14 phosphatase specificity in plant fungal pathogens: implications for antifungal development” (Scientific Reports, 2020)
